# Test results from the Immune Epitope Database (IEDB).
# Legend:
# HLA-A*02:01 [1] = test: IEDB peptide-MHC binding, purified MHC/competitive/fluorescence; filed as Kd, often an IC50 or EC50 that approximates it; ≥ and ≤ were set here for values at or beyond the usual limits of such assays
# HLA-A*26:02 = test: as above; conditions: source organism: Human immunodeficiency virus 1
# HLA-A*68:02 [2] = test: as above; conditions: source organism: Human immunodeficiency virus 1
# HLA-B*39:01 = test: as above
# HLA-A*02:03 [3] = test: as above; conditions: source organism: Human immunodeficiency virus 1
# HLA-A*02:01 [4] = test: IEDB peptide-MHC binding, purified MHC/competitive/fluorescence; ≥ and ≤ were set here for values at or beyond the usual limits of such assays; conditions: source organism: Variola virus
# HLA-B*07:02 = test: as above
# HLA-B*15:01 [5] = test: as above; conditions: source organism: Variola virus
# HLA-A*02:03 [6] = test: IEDB peptide-MHC binding, purified MHC/direct/fluorescence; filed as Kd, often an IC50 or EC50 that approximates it; ≥ and ≤ were set here for values at or beyond the usual limits of such assays
# HLA-A*02:11 = test: as above
# HLA-A*02:12 = test: as above
# HLA-A*02:16 = test: as above
# HLA-A*02:19 = test: as above
# HLA-A*03:01 [7] = test: as above
# HLA-A*24:03 = test: as above
# HLA-A*29:02 = test: as above; conditions: source organism: Limestone Canyon virus
# HLA-A*68:02 [8] = test: as above
# HLA-B*08:01 = test: as above; conditions: source organism: Rio Mamore hantavirus
# HLA-A*26:01 = test: IEDB peptide-MHC binding, purified MHC/competitive/fluorescence; filed as Kd, often an IC50 or EC50 that approximates it; ≥ and ≤ were set here for values at or beyond the usual limits of such assays
# HLA-A*69:01 = test: as above
# HLA-B*18:01 = test: as above
# HLA-B*27:03 = test: as above
# HLA-B*51:01 = test: as above
# HLA-B*57:01 = test: as above
# HLA-B*40:01 = test: IEDB peptide-MHC binding, purified MHC/direct/fluorescence; filed as Kd, often an IC50 or EC50 that approximates it; ≥ and ≤ were set here for values at or beyond the usual limits of such assays; conditions: source organism: Sudan ebolavirus - Uganda (2000)
# HLA-B*15:01 [9] = test: IEDB peptide-MHC binding, purified MHC/competitive/fluorescence; filed as Kd, often an IC50 or EC50 that approximates it; ≥ and ≤ were set here for values at or beyond the usual limits of such assays
# HLA-B*15:17 = test: as above; conditions: source organism: Zaire ebolavirus
# HLA-B*46:01 = test: as above
# HLA-A*24:02 = test: IEDB peptide-MHC binding, purified MHC/competitive/fluorescence; ≥ and ≤ were set here for values at or beyond the usual limits of such assays; conditions: source organism: Sudan ebolavirus
# HLA-A*03:01 [10] = test: IEDB peptide-MHC binding, purified MHC/competitive/fluorescence; filed as Kd, often an IC50 or EC50 that approximates it; ≥ and ≤ were set here for values at or beyond the usual limits of such assays; conditions: source organism: Orthohantavirus sinnombreense
# HLA-A*31:01 = test: as above; conditions: source organism: Orthohantavirus sinnombreense
# [11] = source organism: Human immunodeficiency virus 1
# [12] = source organism: Limestone Canyon virus
# [13] = source organism: Lechiguanas virus
# [14] = source organism: Zaire ebolavirus
# [15] = source organism: Orthohantavirus sinnombreense
sequence,measurement,setting,value
DIKDTKEAL,Kd,HLA-A*02:01 [1]; [11],≥ 20 µM
same,Kd,HLA-A*26:02,≥ 20 µM
same,Kd,HLA-A*68:02 [2],1.7 µM
same,Kd,HLA-B*39:01; [11],≥ 20 µM
EELKSLFNTI,Kd,HLA-A*02:03 [3],1.54 µM
same,Kd,HLA-A*68:02 [2],1.18 µM
FIHIPGDTL,IC50,HLA-A*02:01 [4],2.55 µM
same,IC50,HLA-B*07:02; source organism: Variola virus,47 µM
same,IC50,HLA-B*15:01 [5],≥ 80.7 µM
KLKSVGKAY,Kd,HLA-A*02:03 [6]; [12],≥ 20 µM
same,Kd,HLA-A*02:11; [12],≥ 20 µM
same,Kd,HLA-A*02:12; [12],≥ 20 µM
same,Kd,HLA-A*02:16; [12],≥ 20 µM
same,Kd,HLA-A*02:19; [12],≥ 20 µM
same,Kd,HLA-A*03:01 [7]; source organism: Rio Mamore hantavirus,0.536 µM
same,Kd,HLA-A*24:03; [12],≥ 20 µM
same,Kd,HLA-A*29:02,≥ 20 µM
same,Kd,HLA-A*68:02 [8]; [12],≥ 20 µM
same,Kd,HLA-B*08:01,≥ 20 µM
same,Kd,HLA-A*02:01 [1]; [13],≥ 20 µM
same,Kd,HLA-A*26:01; [13],≥ 20 µM
same,Kd,HLA-A*69:01; [13],≥ 20 µM
same,Kd,HLA-B*18:01; [13],≥ 20 µM
same,Kd,HLA-B*27:03; [13],≥ 20 µM
same,Kd,HLA-B*39:01; [13],≥ 20 µM
same,Kd,HLA-B*51:01; [13],≥ 20 µM
same,Kd,HLA-B*57:01; [13],≥ 20 µM
LESLTDREL,Kd,HLA-A*02:03 [6]; [14],≥ 20 µM
same,Kd,HLA-A*02:11; [14],≥ 20 µM
same,Kd,HLA-A*02:12; [14],≥ 20 µM
same,Kd,HLA-A*02:16; [14],≥ 20 µM
same,Kd,HLA-A*02:19; [14],≥ 20 µM
same,Kd,HLA-A*03:01 [7]; [14],≥ 20 µM
same,Kd,HLA-A*24:03; [14],≥ 20 µM
same,Kd,HLA-A*68:02 [8]; [14],≥ 20 µM
same,Kd,HLA-B*40:01,0.118 µM
same,Kd,HLA-A*02:01 [1]; [14],≥ 20 µM
same,Kd,HLA-A*26:01; [14],≥ 20 µM
same,Kd,HLA-A*69:01; [14],≥ 20 µM
same,Kd,HLA-B*15:01 [9]; [14],≥ 20 µM
same,Kd,HLA-B*15:17,≥ 20 µM
same,Kd,HLA-B*18:01; [14],≥ 20 µM
same,Kd,HLA-B*27:03; [14],≥ 20 µM
same,Kd,HLA-B*39:01; [14],≥ 20 µM
same,Kd,HLA-B*46:01; [14],≥ 20 µM
same,Kd,HLA-B*51:01; [14],≥ 20 µM
same,Kd,HLA-B*57:01; [14],≥ 20 µM
RPHTPQFLF,IC50,HLA-A*24:02,1.03 µM
same,IC50,HLA-B*07:02; source organism: Sudan ebolavirus,1.46 µM
RTLGVFRYK,Kd,HLA-A*02:03 [6]; [12],≥ 20 µM
same,Kd,HLA-A*02:12; [12],≥ 20 µM
same,Kd,HLA-A*02:16; [12],≥ 20 µM
same,Kd,HLA-A*02:19; [12],≥ 20 µM
same,Kd,HLA-A*29:02,≥ 20 µM
same,Kd,HLA-A*68:02 [8]; [12],≥ 20 µM
same,Kd,HLA-A*03:01 [10],0.109 µM
same,Kd,HLA-A*26:01; [15],≥ 20 µM
same,Kd,HLA-A*31:01,0.0062 µM
same,Kd,HLA-A*69:01; [15],≥ 20 µM
same,Kd,HLA-B*15:01 [9]; [15],≥ 20 µM
same,Kd,HLA-B*18:01; [15],≥ 20 µM
same,Kd,HLA-B*39:01; [15],≥ 20 µM
same,Kd,HLA-B*46:01; [15],≥ 20 µM
same,Kd,HLA-B*51:01; [15],≥ 20 µM
